From the DeepSol protein solubility set come the findings set out here.

A short description of the data set: soluble on expression in E. coli; label from the status in PepcDB or PDB records.
As to “MAKAPDIVDLLTLAVDRNASDLVITVGLPPMIKIDGEFHPTEHEALTPQDTRRLMYALMDEKQQRHFEEEKELDFSFSLPAKGRYRVNVFLQRGSVGGVLRVVPTVVKSFEELGLPKNIGELALTPRGLLLITGPTGSGKSTTLASMIDYINERRRAHIVTIEDPIEFFHRHKTSIINQREIGSDTHGFHKALRSVLRQAPDVILVGEMRDYETISAAITAAETGHLVMGTLHTNSAPETIDRIIDVFPEAQQEQVRVQLANNLVAVMTQQLLPKAFGGGRVLAYELMIATSAVRALIREGKSHQLVSVIQTGGQYNMITMDACLADLYKRKLITYEMGQSRAVDPKEFARLAGAAAPAASTNTGAQRRA”, the “soluble on expression in E. coli” value was “soluble”. Then “MDPSLLRERELFKKRALSTPVVEKRSASSESSSSSSKKKKTKVEHGGSSGSKQNSDHSNGSFNLKALSGSSGYKFGVLAKIVNYMKTRHQRGDTHPLTLDEILDETQHLDIGLKQKQWLMTEALVNNPKIEVIDGKYAFKPKYNVRDKKALLRLLDQHDQRGLGGILLEDIEEALPNSQKAVKALGDQILFVNRPDKKKILFFNDKSCQFSVDEEFQKLWRSVTVDSMDEEKIEEYLKRQGISSMQESGPKKVAPIQRRKKPASQKKRRFKTHNEHLAGVLKDYSDITSSK”, with “not soluble”; and “GAPSQGATANAETQTTIPLGDTSQNALDWPGVYEGVLPCASCEGIQTTLTLQADNSFELKSIYLGKDESIFKVAGKFDWDSNGSKITLSDGSKYLVGENQLLMLDTEGNRITGGLAEHYILKKKGM”, with “soluble”; and “MAHHHHHHMSLADPHPLEAATTPASSLSNSIRLALLPASMKLPRDKSSSPELLAVFLPPDFCCMSVKSSTQNSSLFSSGISTVSPGRGCSVMEWRAIMQPVLLSLFKHWSVAAIRPGLFRRFCVGDVLFARERKLANSTPSAPCVNFPHRSTRVGAPRALRADCSSSSSSCKERKRHEWQDSRASESQEASPLLETSLPLLLWSSG”, with “soluble”. For the sequence “MGSDKIHHHHHHMLLREPDPMNVKEKQMQHTDDTRDIAGVQKPEAPSGRRALITGASSGLGIEFAELLAAQKMNLVLAARRKEPMEKLAEDLRRRHGVDILVEPIDLAAPGAAARLKDSLNERAIQIDILVNNAGYGLQGEFLKTPIERTTDMIQLNITALTELSYVFGRDMAARGSGEILLIASLLAFQPVPTYAAYAATKSYVLSFGEALHDELRTQGVVVTSLCPGHTETGFDAAAGAQVSPMLRLLTMKPRPVAEAGLEALAKGKASVIAGFMNKVVAFSTRLTPRSMQRASMRKVMVP”, the “soluble on expression in E. coli” value is given as “not soluble”. The value for “SNLYTERVLSVHHWNDTLFSFKTTRNPGLRFKTGQFVMIGLEVDGRPLMRAYSIASPNYEEHLEFFSIKVPDGPLTSRLQHLKEGDELMVSRKPTGTLVHDDLLPGKHLYLLSTGTGMAPFLSVIQDPETYERYEKVILVHGVRWVSELAYADFITKVLPEHEYFGDQVKEKLIYYPLVTREPFRNQGRQTDLMRSGKLFEDIGLPPMNPQDDRAMICGSPSMLEETSAVLDSFGLKISPRMGEPGDYLIERAFVEK” was “soluble”. Regarding “MPTVSLGRFQKEDGINVPDWIDVVRRPSGGRALLHHREITYCLAVPKKINFGKLSVLEFHRLVHSLIRDALVEAGLHAELSSKRRGNTALCFDAPSRYEIVINGVKVVGSAQFRTAESIVEHGSIVLKQDIDL”, the “soluble on expression in E. coli” value is on record as “soluble”.

With “MGSDKIHHHHHHMTSREDEIRDFLATHGYADWNRTPLAGDASSRRYQRLRSPTGAKAVLMDWSPEEGGDTQPFVDLAQYLRNLDISAPEIYAEEHARGLLLIEDLGDALFTEVINNDPAQEMPLYRAAVDLLIHLHDAQTPELARLDPETLSEMTRLAFSEYRYAILGDAAEDNRKRFEHRFAQILSAQLEGDMVFVHRDFHAQNLLWLPEREGLARVGVIDFQDAKLGHRAYDLVSLLQDARRDVPAQVEAQMIDHYIQATGVDESHFRSAYAVIAVQRNMRILGIFARLSQRFGKRHYIEFVPRVWAHFERGLAHPALASAAEEILNALPAPAPEVLERLRA”, the “soluble on expression in E. coli” value is listed as “not soluble”. As for “MFVDQVKISLKAGDGGNGITAYRREKYVPFGGPAGGDGGKGASVVFEVDEGLRTLLDFRYQRHFKASKGENGQSSNMHGKNAEDLVLKVPPGTIIKNVETDEVLADLVEDGQRAVVAKGGRGGRGNSRFATPRNPAPDFSEKGEPGEELDVSLELKLLADVGLVGFPSVGKSTLLSIVSKAKPKIGAYHFTTIKPNLGVVSTPDQRSFVMADLPGLIEGASDGVGLGHQFLRHVERTKVIVHMIDMSGSEGREPIEDYKVINQELAAYEQRLEDRPQIVVANKMDLPESQDNLNLFKEEIGEDVPVIPVSTITRDNIDQLLYAIADKLEEYKDVDITVEEEESVGINRVLYKHTPSQDKFTISRDDDGAYVVSGNAIERMFKMTDFNSDPAVRRFARQMRSMGIDDALRERGCKNGDIVRILGGEFEFVE”, the “soluble on expression in E. coli” value is “not soluble”. In the case of “GPGSMNCFGVRNWWRNNLPELQLLNPFCSFTIQELSFGEPHMYINYTPTDQRMIRLAGATEDECEDIMEACITYGMNHAIIERPRTDDGGDLINQPAITSFGYTESFMSKLEVSPPADIGQRTPEGVDDPGQKPRVYPRNVGFKIMP”, the “soluble on expression in E. coli” value is listed as “not soluble”. Regarding “GSYAEGQRKRRNTIHEFKKSAKTTLIKIDPALKIKTKKVNTADQCANRCTRNKGLPFTCKAFVFDKARKQCLWFPFNSMSSGVKKEFGHEFDLYENKDYIRNCIIGEGESYKGTVSITKSGIKCQPWSSMIPHEHSFLPSSYRGKDLQENYCRNPRGEEGGPWCFTSNPEVRYEVCDIPQCSEVECMTANGESYRGLMDHTESGKICQRWDHQTPHRHKFLPERYPDKGFDDNYCRNPDGQPRPWCYTLDPHTRWEYCAIKTCA”, the “soluble on expression in E. coli” value is listed as “soluble”. With “MMDFSHIVSEDKIKRAIKDGDFQNLPGMGKPLPKMTRHTCRNRCAWAIVFLEHHHHHH”, the “soluble on expression in E. coli” value is “not soluble”.

In the case of “MSLSENIAAYVGLDVHKETLAVAIAAPERLGEVRYYGTINNEAQAVRRLFQKLQGLYGNILSCYEAGPCGFGLYHQLTAMNIKCQVIAPSRIPKSPTDRIKNDHRDAISLARLLRAGELTPVWIPDLTHEAMRDLIRARAAAKRDSRVARQRILSMLLRTDKHYAGKHWTGKHRTWLANQSFSQPSQQIAFQHYCQSLEQIEDRILQLDQEISRLLPEWSLCNLVCQLQALKGVGQLIAITLVAELGDFSRFSNPKQLMAFLGLVPGEYSSGNSIRPRGITKVGNSELRRLLYEAAWSYRTPAKVGAWLIYYRPDSVTQYSKDIAWKAQQRLCSRYRSLTAKGKKSQVAITAVARELTGFMWDIALAAQSSFSQQKQNEGHHHHHH”, the “soluble on expression in E. coli” value is “soluble”. For the sequence “MGSDKIHHHHHHMTKRDPSTLIRIARENGAEAEAEPLDLGARVRELRKARDWTLEQAASQAGLARSTLSKIENGQMSPTYDALKKLAVGLQISVPQLFTPPQKGQVNGRMTVTKSGSGSGHATATYEHELLADSLTKKQMLPYRARVRARAMEEFDGWVRHDGEEFLYVLTGVIRLYTEFYEPIEMRRGDSAYYDASMGHNVVSVSDEDATILWVTSLV”, the “soluble on expression in E. coli” value is recorded as “not soluble”. Take “MSLRITRLTVFHLDLPLAKPYWLSGGRLKFDRLDSTYLRIDTDEGVTGWGEGCPWGHSYLPAHGPGLRAGIATLAPHLLGLDPRSLDHVNRVMDLQLPGHSYVKSPIDMACWDILGQVAGLPLWQLLGGEAATPVPINSSISTGTPDQMLGLIAEAAAQGYRTHSAKIGGSDPAQDIARIEAISAGLPDGHRVTFDVNRAWTPAIAVEVLNSVRARDWIEQPCQTLDQCAHVARRVANPIMLDECLHEFSDHLAAWSRGACEGVKIKPNRVGGLTRARQIRDFGVSVGWQMHIEDVGGTALADTAALHLAASTPEANRLASWLGHAHLADDPIPGQGARNRDGLATPPSAPGLGVIPDPEALGRPVASYDEGHHHHHH”: the “soluble on expression in E. coli” value is listed as “soluble”. Take “MSLTAPHIVDPAGLLGEALSEASPDLMRSLLQTVINALLSADADAVVGAEWGQPTPGRRSQRNGYRHRGLDTRVGTIDVAVPKLRKGTYFPDWLLERRKRAESALITVVADCYLAGVSTRRMDKLVKTLGIDSLSKSQVSRMATDLDEHVEQFRHRPLDSAGPFTFVAADALTMKVREGGRVVNGVVLLATGVNGDGHREVLGMRVVTSETGPAWNEFFADLVARGLAGVRLVTSDAHAGLREAIAANLPGAAWQRCRTHYAANLMSICPKSMWPAVKAMLHSVYDQPDAPAVAAQFDRLIDYVTDKLPAVAEHLSAAREDILAFTAFPKDVWTQIWSNNPAVIWSPAVGVVDVRHEASGSLVLLSGRGYLQPSRKQSLRRKSACYTGGFANLVGEGHHHHHH”: the “soluble on expression in E. coli” value was “soluble”. As to “MSRTIWLVRHGQRVDNVDKKWKANNDAKWDDPELTLRGKQQAHEVGKHFANMNIEAIVVSPFTRCIETAAQIVAMMENKAKICVEPGLMEPLYLCKNPPTIPSMDKIKEYSTQVDESYKPVFEKLPISEISLLFSEISLLFPMVLHWQTSTLS”, the “soluble on expression in E. coli” value was “not soluble”.

“MSLSEVDIAKADPAAASHPLLLNGDATVAQKNPGSVAENNLCSQYEEKVRPCIDLIDSLRALGVEQDLALPAIAVIGDQSSGKSSVLEALSGVALPRGSGIVTRCPLVLKLKKLVNEDKWRGKVSYQDYEIEISDASEVEKEINKAQNAIAGEGMGISHELITLEISSRDVPDLTLIDLPGITRVAVGNQPADIGYKIKTLIKKYIQRQETISLVVVPSNVDIATTEALSMAQEVDPEGDRTIGILTKPDLVDKGTEDKVVDVVRNLVFHLKKGYMIVKCRGQQEIQDQLSLSEALQREKIFFENHPYFRDLLEEGKATVPCLAEKLTSELITHICKSLPLLENQIKETHKRITEELQKYGVDIPEDENEKMFFLIDKINAFNQDITALMQGEETVGEEDIRLFTRLRHEFHKWSTIIENNFQEGHKILSRKIQKFENQYRGRELPGFVNYRTFETIVKQQIKALEEPAVDMLHTVTDMVRLAFTDVSIKNFEEFFNLHRTAKSKIEDIRAEQEREGEKLIRLHFQMEQIVYCQDQVYRGALQKVREKELEEEKKKKSWDFGAFQSSSATDSSMEEIFQHLMAYHQEASKRISSHIPLIIQFFMLQTYGQQLQKAMLQLLQDKDTYSWLLKERSDTSDKRKFLKERLARLTQARRRLAQFPGEGHHHHHH”: the “soluble on expression in E. coli” value is reported as “soluble”.

For the sequence “MSLRKVRVGIWGFGAMGIGMANMILKKEGIEIVSVCSRSTSGKSMYDVLGIERGERPEVIINKNYEEVFREKSVDVVLLATDSFTKKAFDKIIFLLNRKINVISTAEQMAYPQADDADLAKKMDEVAKENGVSILGTGINPGFVLDLLVLALSGTCEEVTSIKAKRVNDLSPFGKSVMVEQGVGVTREEFIKGVEDKTIAGHVGFVESINMIADGLGWKLDKIEQTKEPIMTTVDRKSKYGEALAGNVAGCRQCGYGYVNGEVLIEMEHPQQIIPEAEGIKTGDYVSIKGIPNIDLQINPEIPGGVGTYAMIVNSIPLIINARPGLKTMLDIPVPRAIMGDIRNQIEVELEEEGHHHHHH”, the “soluble on expression in E. coli” value is “soluble”. As for “PTILVVGDLMIDHYIWGECERISPEAPVQVIDVKRETKTLGGACNVMSNLIALEASVLSCGVVGEDLAGRELLGFLQELGMESKGIITQKGRPTTQKSRIIASNQQVVRVDWENKSPISEESEEAMIAYIRSKLSLCDAVILSDYGKGVLTPRVCQTIIQMAKTLQKRVLVDPKGRDYSKYRGASLLTPNKKEAKEATGIEINDEASLKKALECLKKECELEFSVITLSEDGIGIFDQALERIPTIAQEVYDVTGAGDTVIASLAYGLSLGYPLRECALFANAAAAVVVGKIGSATATHGEIAEYLHS”, the “soluble on expression in E. coli” value is recorded as “not soluble”. For the sequence “MDIDMNYPSITTLMSNESANLLIIWGNATPDISYLSYTTNPMLGDYVLNVSAINGCTEELIATHLVPTLENATQWVYDAGEYWDNYSFTDESTPLPGLSWPFNE”, the “soluble on expression in E. coli” value was “not soluble”.
